Patent US20230272055A1 (Incyte, published 2023)

B1: anti-mutCALR antibody clone 41 (antibody, human IgG1, lambda, V domains shown)
VH: EVQLVQSGAEVKKPGASVKVSCKVSGYTLTELSMHWVRQAPGKGLEWMGLVDPEDGETIYAQKFQGRVTMTEDTSTDTAYMELSSLRSEDTAVYYCAREEWSGDGDDAFDIWGQGTMVTVSS
VL: QSVLTQPPSVSAAPGQKVTISCSGSSSNIGSYSVSWYQQLPGTAPKLLIYDNNKRPSGIPDRFSGSNSGTSATLGITGLQTGDEADYYCGTWDSSLSAWVFGGGTKLTVLG
notes: human IgG1
B2: anti-mutCALR antibody clone 40 (antibody, human IgG1, lambda, V domains shown)
VH: EVQLVQSGAEVKKPGASVKVSCKVSGYTLTESSMHWVRQAPGKGLEWMGLVDPEDGETIYAQKFQGRVTMTEDTSTDTAYMELSSLRSEDTAVYYCAREEWSGDGDDAFDIWGQGTMVTVSS
VL: QSVLTQPPSVSAAPGQKVTISCSGSSSNIGSYSVSWYQQLPGTAPKLLIYDNNKRPSGIPDRFSGSNSGTSATLGITGLQTGDEADYYCGTWDSSLSAWVFGGGTKLTVLG
notes: human IgG1
B3: anti-mutCALR antibody clone 42 (antibody, human IgG1, lambda, V domains shown)
VH: EVQLVQSGAEVKKPGASVKVSCKVSGYTLTELSMHWVRQAPGKGLEWMGLVDPEDGETIYAQKFQGRVTMTEDTSTDTAYMELSSLRSEDTAVYYCAREEWSGDGDDAFDIWGQGTMVTVSS
VL: QSVLTQPPSVSAAPGQKVTISCSGSSSNIGSYSVSWYQQLPGTAPKLLIYDDNKRPSGIPDRFSGSNSGTSATLSITGLQTGDEADYYCGTWDSSLSAWVFGGGTKLTVLG
notes: human IgG1
B4: anti-mutCALR antibody clone 33 (antibody, human IgG1, lambda, V domains shown)
VH: QVQLVQSGAEVKKPGATVKISCKVSGYSFTDYFIHWVQQAPGKGLAWVGLVDPEDGETIYAEKFQGRVTITADTSTDTAYMELSSLRSEDTAVYYCATPGGILTDPDAFDIWGQGTMVTVSS
VL: QSALTQPRSVSGSPGQSVTISCAGTGSDVGGYNHVSWYQHHPGKAPKLMIYDVNKRPSGVPDRFSGSKSGNTASLTISGLQAEDEADYYCSSYIPSSTRWVFGGGTKLTVLG
notes: human IgG1
B5: anti-mutCALR antibody clone 34 (antibody, human IgG1, lambda, V domains shown)
VH: QVQLVQSGAEVKKPGATVKISCKVSGYSFTDYFIHWVQQAPGKGLAWVGLVDPEDGETIYAEKFQGRVTITADTSTDTAYMELSSLRSEDTAVYYCATPGGILTDPDAFDIWGQGTMVTVSS
VL: QSALTQPASVSGSPGQSITISCTGTSSDVGGYNYVSWYQQHPGKAPKLMIYEVSNRPSGVSNRFSGSKSGNTASLTISGLQAEDEADYYCSSYTSSSTYVFGTGTKVTVLG
notes: human IgG1
B6: anti-mutCALR antibody clone 37 (antibody, human IgG1, lambda, V domains shown)
VH: QVQLVQSGAEVKKPGATVKISCKVSGYSFTDYFIHWVQQAPGKGLAWVGLVDPEDGETIYAEKFQGRVTITADTSTDTAYMELSSLRSEDTAVYYCATPGGILTDPDAFDIWGQGTMVTVSS
VL: QSALTQPASVSGSPGQSITISCTGTSSDVGGYNYVSWYQQHPGKAPKLMIYDVSNRPSGVSNRFSGSKSGNTASLTISGLQAEDEADYYCSSYTSSSTFYVFGTGTKVTVLG
notes: human IgG1; group 2
B7: anti-mutCALR antibody clone 35 (antibody, human IgG1, lambda, V domains shown)
VH: QVQLVQSGAEVKKPGATVKISCKVSGYSFTDYFIHWVQQAPGKGLAWVGLVDPEDGETIYAERFQGRVTITADTSTDTAYMELSSLRSEDTAVYYCATPGGILTDPDAFDIWGQGTMVTVSS
VL: QSALTQPASVSGSPGQSITISCTGTSSDVGGYNYVSWYQQHPGKAPKLMIYEVSNRPSGVSNRFSGSKSGNTASLTISGLQAEDEADYYCSSYTSSSTPYVFGTGTKVTVLG
notes: human IgG1; group 2
B8: anti-mutCALR antibody clone 36 (antibody, human IgG1, lambda, V domains shown)
VH: QVQLVQSGAEVKKPGATVKISCKVSGYSFTDYFIHWVQQAPGKGLAWVGLVDPEDGETIYAEKFQGRVTITADTSTDTAYMELSSLRSEDTAVYYCATPGGILTDPDAFDIWGQGTMVTVSS
VL: QSALTQPRSVSGSPGQSVTISCAGTGSDVGGYNYVSWYQHHPGKAPKLMIYDVNKRPSGVPDRFSGSKSGNTASLTISGLQAEDEADYYCSSYTSSSTFYVFGTGTKVTVLG
notes: human IgG1; group 2
B9: anti-mutCALR antibody clone 52 (antibody, human IgG1, kappa, V domains shown)
VH: EVQLVQSGAEVKKPGASVKVSCKVSGYTLTELSMHWVRQAPGKGLEWMGLVDPEDGETIYAEKFQGRVTITADTSTDTAYMELSSPRSEDTAVYYCATTIGDDYFDYWGQGTLVTVSS
VL: not shown
notes: human IgG1
B10: anti-mutCALR antibody clone 48 (antibody, human IgG1, lambda, V domains shown)
VH: EVQLVQSGAEVKKPGSSVKVSCKASGGTFSSYAISWVRQAPGQGLEWMGGIIPIFGTANYAQKFQGRVTITADESTSTAYMELSSLRSEDTAVYYCASSPLRGSGWYWHYYYGMDVWGQGTTVTVSS
VL: SYVLTQPPSVSVAPGKTARITCGGNNIGSKSVHWYQQKPGQAPVLVIYQDRKRPSGIPERFSGSNSGNTATLTISGTQAMDEADYYCQAWDSSTAVFGGGTKLTVLG
notes: human IgG1
B11: anti-mutCALR antibody clone 49 (antibody, human IgG1, lambda, V domains shown)
VH: EVQLVQSGAEVKKPGSSVKVSCKASGGTFSSYAISWVRQAPGQGLEWMGGIIPIFGTANYAQKFQGRVTITADESTSTAYMELSSLRSEDTAVYYCASSPLRGSGWYWHYYYGMDVWGQGTTVTVSS
VL: SYELTQPPSVSVAPGKTARITCGGNNIRAKHVHWYQQKPGQSPVLVIYQDSKRPSGIPERFSGSNSGSTATLTISRVEAGDEADYYCQVWDSSTVVFGGGTKLTVLG
notes: human IgG1
B12: anti-mutCALR antibody clone 51 (antibody, human IgG1, lambda, V domains shown)
VH: EVQLVQSGAEVKKPGSSVKVSCKASGGTFSSYAISWVRQAPGQGLEWMGGIIPIFGTANYAQKFQGRVTITADESTSTAYMELSSLRSEDTAVYYCASSPLRGSGWYWHYYYGMDVWGQGTTVTVSS
VL: SYELTQPPSVSVAPGKTARITCGGNKIGTKSVHWYQQKPGQAPVLVIYQDSKRPSGIPERFSGSNSGNTATLTISGTQAMDEADYYCQAWGSSTVVFGGGTKLTVLG
notes: human IgG1
B13: anti-mutCALR antibody clone 45 (antibody, human IgG1, lambda, V domains shown)
VH: EVQLVQSGAEVKKPGSSVKVSCKASGGTFSSYAISWVRQAPGQGLEWMGGIIPIFGTANYAQKFQGRVTITADESTSTAYMELSSLRSEDTAVYYCASSPLRGSGWYWHYYYGMDVWGQGTTVTVSS
VL: SYVLTQPLSVSVAPGQTARITCGGNNIGRKSVHWYQQKPGQAPVLVIYRDSNRPSGIPERFSGSNSGNTATLTISRAQAGDEADYYCQVWDSSTVVFGGGTKLTVLG
notes: human IgG1
B14: anti-mutCALR antibody clone 50 (antibody, human IgG1, lambda, V domains shown)
VH: QMQLVQSGAEVKKPGSSVKVSCKASGGTFSSYAISWVRQAPGQGLEWMGGIIPIFGTANYAQKFQGRVTITADESTSTAYMELSSLRSEDTAVYYCASSPLRGSGWYWHYYYGMDVWGQGTTVTVSS
VL: SYVLTQPPSVSVAPGKTARITCGGNNIGTKSVHWYQQKPGQSPVLVIYQDRKRPSGIPERFSGSNSGNTATLTISGTQAMDEADYYCQVWDSSTEVFGGGTKLTVLG
notes: human IgG1
B15: anti-mutCALR antibody clone 43 (antibody, human IgG1, lambda, V domains shown)
VH: EVQLVQSGAEVKKPGASVKVSCKASGGTFSSYAISWVRQAPGQGLEWMGGIIPIFGTANYAQKFQGRVTITADESTSTAYMELSSLRSEDTAVYYCASSPLRGSGWYWHYYYGMDVWGQGTTVTVSS
VL: not shown
notes: human IgG1
B16: anti-mutCALR antibody clone 38 (antibody, human IgG1, kappa, V domains shown)
VH: EVQPVQSGAEVKKPGSSVKVSCKASGGTFSSYAISWVRQAPGQGLEWMGLVDPEDGETIYAEKFRGRVTITADTSTDTAYMELSSLRSEDTAVYYCATEESYGPWGQGTLVTVSS
VL: DIQLTQSPSSLSASVGDRVTITCQASQDISNYLNWYQQKPGKAPKLLIYDASNLETGVPSRFSGSGSGTEFTLTISSLQPEDFATYYCQQLNSYPLTFGGGTKLEIKR
notes: human IgG1
B17: anti-mutCALR antibody clone 39 (antibody, human IgG1, kappa, V domains shown)
VH: EVQLVQSGAEVKKPGSSVKVSCKASGGTFSSYAISWVRQAPGQGLEWMGLVDPEDGETIYAEKFQGRVTITADTSTDTAYMELSSLRSEDTAVYYCATEESYGPWGQGTLVTVSS
VL: DIQLTQSPSSLSASVGDRVTITCQASQDISNYLDWYQQKPGKAPKLLIYDASNLETGVPSRFSGSGSGTEFTLTISSLQPEDFATYYCQQLNSYPLTFGGGTKLEIKR
notes: human IgG1

Assays:
[1] = target: T1, human mutCALR on BaF3 cells stably expressing human MPL and human mutCALR (MPL-mutCALR cells) (human); assay: flow cytometry, BaF3 MPL-mutCALR cells
T1 construct: also called mutant calreticulin
T1 chain: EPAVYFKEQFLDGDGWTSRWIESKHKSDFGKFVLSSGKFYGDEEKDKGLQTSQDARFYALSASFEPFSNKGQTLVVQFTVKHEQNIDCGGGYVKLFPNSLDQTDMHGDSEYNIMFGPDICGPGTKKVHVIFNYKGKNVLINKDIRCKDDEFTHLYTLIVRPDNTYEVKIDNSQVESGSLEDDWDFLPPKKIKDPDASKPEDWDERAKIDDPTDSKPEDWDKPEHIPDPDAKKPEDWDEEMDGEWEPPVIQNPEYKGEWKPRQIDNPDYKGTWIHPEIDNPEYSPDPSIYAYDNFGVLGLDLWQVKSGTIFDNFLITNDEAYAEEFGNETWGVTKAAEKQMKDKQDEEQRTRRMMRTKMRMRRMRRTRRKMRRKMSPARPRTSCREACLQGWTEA
Description: On the day of the assay, cells were washed and resuspended in assay buffer. Approximately 200,000 cells/well were added to 96-well plates and stained with the indicated concentration of antibodies for 30 minutes on ice. Cells were then washed and stained with goat anti-human secondary conjugated to R-phycoerythrin (R-PE) (Jackson Immuno Research Laboratories) for 30 minutes on ice. The cells were then washed and analyzed by flow cytometry.

[2] = target: T2, human Type 1 mutCALR on Ba/F3 cells expressing MPL and Type 1 mutCALR (human); assay: cell-based or functional assay
T2 chain: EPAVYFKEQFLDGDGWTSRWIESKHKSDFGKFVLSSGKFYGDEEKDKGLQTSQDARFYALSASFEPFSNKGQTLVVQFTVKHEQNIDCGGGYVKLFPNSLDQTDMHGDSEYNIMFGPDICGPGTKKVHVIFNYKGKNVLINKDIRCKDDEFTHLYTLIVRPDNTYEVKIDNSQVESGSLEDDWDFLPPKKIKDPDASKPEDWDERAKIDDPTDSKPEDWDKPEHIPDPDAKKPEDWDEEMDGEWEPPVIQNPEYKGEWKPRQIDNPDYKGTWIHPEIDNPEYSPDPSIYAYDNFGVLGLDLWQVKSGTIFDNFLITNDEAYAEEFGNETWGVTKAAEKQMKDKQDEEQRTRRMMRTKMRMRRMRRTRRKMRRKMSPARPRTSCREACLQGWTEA

[3] = target: MBP protein (UniProt P0AEX9 27-392 = MBP); assay: SPR (Biacore 8K), antibody captured on anti-human IgG (Fc), MBP injected
Description: Experiment 1: Recombinant MBP-mutCALR Type 1 fusion protein was custom made at Cepter (cepterbiopartners.com). Data for the interaction of antibodies with recombinant MBP-mutCALR Type 1 fusion protein were collected at 25° C. on a Biacore 8K instrument (Cytiva, Marlborough, Mass.), and all reagents were obtained from Cytiva unless otherwise specified. The experiments were conducted using Tris-buffered saline (pH 7.2), 0.005% Surfactant P20, 1 mM CaCl₂) as running buffer. To prepare the capture surfaces, anti-human IgG (Fc) antibodies (Product #29234600) was amine-coupled onto a CM4 chip (Product #BR100534) under standard conditions using an Amine Coupling Kit (Product #BR100050). […] The kinetics parameters were obtained by applying 1:1 binding model to fit the data from multiple-cycle injection experiments using Biacore Insight Evaluation software.

Binder | MPL-mutCALR AUC [1] | IC50, inhibition of pSTAT5 [2] [µg/mL] | EC50 [1] [µg/mL] | binding result [3]
B1 | 60600 | 0.364 | – | –
B2 | 52900 | 0.742 | 0.07 | –
B3 | 61300 | 0.196 | – | –
B4 | 38700 | 80.4 | 0.15 | –
B5 | 71900 | 0.072 | 0.02 | –
B6 | – | – | – | no binding (tested: 250 nM)
B7 | – | – | – | no binding (tested: 250 nM)
B8 | – | – | – | no binding (tested: 250 nM)
B9 | 65800 | 0.346 | – | –
B10 | 30300 | 2.6 | – | –
B11 | 36400 | 9.3 | 0.89 | –
B12 | 37300 | 14 | 1.15 | –
B13 | 29800 | 13 | – | –
B14 | 36700 | 28 | 0.8 | –
B15 | 27900 | 6.9 | – | –
B16 | 37000 | 3.55 | 1.44 | –
B17 | 51500 | 3.97 | – | –
